Assay results: US20240352136A1 (Hoffmann-La Roche, published 2024)

Target: T1, human CD25 (alpha subunit of the interleukin-2 receptor, IL2RA) (human, UniProt P01589 22-272)
T1 sequence: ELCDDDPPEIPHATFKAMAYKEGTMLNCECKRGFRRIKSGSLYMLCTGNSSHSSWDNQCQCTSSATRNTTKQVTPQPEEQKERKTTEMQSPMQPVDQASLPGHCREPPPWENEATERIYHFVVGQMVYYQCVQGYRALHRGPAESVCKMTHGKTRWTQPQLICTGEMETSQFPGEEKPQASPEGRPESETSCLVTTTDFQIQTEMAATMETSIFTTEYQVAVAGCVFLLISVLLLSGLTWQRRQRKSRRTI
Test: cell-based or functional assay

B1: CD25 Mab (RG6292) (antibody, human IgG1, kappa, V domains shown)
VH: QVQLVQSGAEVKKPGSSVKVSCKASGGTFSSLAISWVRQAPGQGLEWMGGIIPIFGTANYAQKFQGRVTITADESTSTAYMELSSLRSEDTAVYYCARGGSVSGTLVDFDIWGQGTMVTVSS
VL: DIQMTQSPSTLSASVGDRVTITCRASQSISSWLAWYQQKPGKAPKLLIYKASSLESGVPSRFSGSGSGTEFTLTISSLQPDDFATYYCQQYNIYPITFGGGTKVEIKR
modifications: afucosylated Fc glycan (produced using the GlymaxX technology)
In the case of B1, the “ADCC EC50, AML-22 target cells with activated NK cells, flow cytometry readout, 17 h” value is reported as ~0.03 µg/mL, the “ADCC EC50, EOL-1 target cells with activated NK cells, flow cytometry readout, 17 h” value is reported as ~0.03 µg/mL and the “ADCC EC50, EOL-1 target cells, CytoTox-Glo luminescence readout” value is reported as 0.035 µg/mL. For the same binder, the “ADCC EC50, EOL-1 target cells, flow cytometry readout” value was 0.03 µg/mL.
